Consider 3 substances from publication PMC4838342.

The target of one assay is mCherry-LacI-H3 (UniProt P68431). As to the kind of experiment: F2H (live cell imaging, recruitment to LacO array). To be noted: n=20; parent: est. 1.7; read off a plot.
Another assay deals with MBP H3 116–135 (human). As to the kind of experiment: ITC; MicroCal iTC200; sNASP (180, 150, 100 μM) in the syringe injected into MBP H3 116–135 (30, 15, 10 μM) in the cell; 20 mM Hepes-KOH pH 7.5, 200 mM sodium chloride; one-site model. (Isothermal titration calorimetry measures the heat released or taken up as one component is titrated into another.)

For the substance “EGFP-sNASP (from UniProt P49321-2) E211A; E215A; E217A”, in the assay with mCherry-LacI-H3, the other: enrichment ratio is 1.2. Same read-out and setting: for “EGFP-sNASP (from UniProt P49321-2) E246A; Y249S; L253S” the value was 1.1. In the case of “sNASP (from UniProt P49321-2 1-449) (natural protein; other documents disagree on this pair)”, in the assay with MBP H3 116–135 (human), the Kd was in the range of 47 to 68 nM and the stoichiometry N turned out to be 1.

One may read the Kd as the constant that tells how readily two partners part at equilibrium. A high value points to lower affinity. In general, stoichiometry N refers to a count of units in the complex or per binding partner.
